Reference: patent US20260151519A1 (AKTIS ONCOLOGY, published 2026)
Primed or numbered codes have the meaning given here. Where no end group is shown, it is not given here. [ ]: non-standard residue; d: D form. The star is where a group is joined. Biotin = O=C1N[C@H]2[C@H](CS[C@H]2CCCCC(=O)*)N1; Lys(Me3) = C[N+](C)(C)CCCC[C@H](N)C(=O)O; PEG4′ = not defined here

Tests used:
PLPP3 = biological target: T1, PLPP3 (human, UniProt O14495 1-311); assay: cell microarray on HEK293 cells
T1 construct: whole, on cells
T1 sequence (looked up): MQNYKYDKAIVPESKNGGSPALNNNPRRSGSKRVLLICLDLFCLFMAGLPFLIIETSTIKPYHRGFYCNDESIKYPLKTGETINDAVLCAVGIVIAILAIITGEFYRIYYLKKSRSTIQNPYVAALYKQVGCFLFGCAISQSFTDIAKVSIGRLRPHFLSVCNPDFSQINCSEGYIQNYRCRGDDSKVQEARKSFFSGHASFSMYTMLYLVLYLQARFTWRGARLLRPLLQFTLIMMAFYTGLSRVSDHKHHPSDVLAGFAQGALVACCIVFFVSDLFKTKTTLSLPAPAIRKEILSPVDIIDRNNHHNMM
Description: (§1) Initially, two pools of compounds were tested. […] To perform this assay, HEK293 cells were plated on a dish and localized spots of cells were transiently over-expressed with a single cDNA encoding for GFP and one of the 6,416 targets. Included in this library were multiple clones for the Nectin family members, including plasma membrane, non-tethered secreted, and tethered secreted forms of Nectin-1, 2, 3, and 4. Secreted protein targets were tethered to the plasma membrane to aid in detection. The molecule pools were incubated on the fixed, over-expressing cell microarrays (n=2 per protein), and binding was visualized using Alexa Fluor 647 streptavidin fluorescence.

MFSD2B = biological target: T2, MFSD2B (human, UniProt A6NFX1 1-504); assay: cell microarray on HEK293 cells
T2 construct: whole, on cells
T2 sequence (looked up): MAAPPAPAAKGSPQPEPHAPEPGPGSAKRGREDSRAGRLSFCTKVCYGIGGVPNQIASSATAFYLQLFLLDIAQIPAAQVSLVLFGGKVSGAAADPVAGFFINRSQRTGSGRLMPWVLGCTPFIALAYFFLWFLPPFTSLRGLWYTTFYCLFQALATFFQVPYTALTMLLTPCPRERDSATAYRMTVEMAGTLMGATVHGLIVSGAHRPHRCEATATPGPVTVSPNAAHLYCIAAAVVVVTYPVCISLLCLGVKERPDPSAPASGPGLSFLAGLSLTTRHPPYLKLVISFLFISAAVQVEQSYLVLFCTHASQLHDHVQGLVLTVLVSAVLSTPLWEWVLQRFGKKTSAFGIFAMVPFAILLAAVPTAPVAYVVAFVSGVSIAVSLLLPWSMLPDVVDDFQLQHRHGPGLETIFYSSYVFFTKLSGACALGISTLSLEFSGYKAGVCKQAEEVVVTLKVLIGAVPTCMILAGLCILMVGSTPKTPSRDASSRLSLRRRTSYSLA
Description: as §1

CXCL12 = biological target: T3, CXCL12 (human, UniProt P48061 22-93); assay: cell microarray on HEK293 cells
T3 construct: whole, on cells; Secreted targets were tethered to the plasma membrane
Description: as §1

EDN2 = biological target: T4, EDN2 (human, UniProt P20800 49-69); assay: cell microarray on HEK293 cells
T4 construct: whole, on cells; Secreted targets were tethered to the plasma membrane
T4 chain (looked up): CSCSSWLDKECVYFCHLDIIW
Description: as §1

TRPV5 = biological target: T5, TRPV5 (human, UniProt Q9NQA5 1-729); assay: cell microarray on HEK293 cells
T5 construct: whole, on cells
Description: as §1

SPNS2 = biological target: T6, SPNS2 (human, UniProt Q8IVW8 1-549); assay: cell microarray on HEK293 cells
T6 construct: whole, on cells
T6 sequence (looked up): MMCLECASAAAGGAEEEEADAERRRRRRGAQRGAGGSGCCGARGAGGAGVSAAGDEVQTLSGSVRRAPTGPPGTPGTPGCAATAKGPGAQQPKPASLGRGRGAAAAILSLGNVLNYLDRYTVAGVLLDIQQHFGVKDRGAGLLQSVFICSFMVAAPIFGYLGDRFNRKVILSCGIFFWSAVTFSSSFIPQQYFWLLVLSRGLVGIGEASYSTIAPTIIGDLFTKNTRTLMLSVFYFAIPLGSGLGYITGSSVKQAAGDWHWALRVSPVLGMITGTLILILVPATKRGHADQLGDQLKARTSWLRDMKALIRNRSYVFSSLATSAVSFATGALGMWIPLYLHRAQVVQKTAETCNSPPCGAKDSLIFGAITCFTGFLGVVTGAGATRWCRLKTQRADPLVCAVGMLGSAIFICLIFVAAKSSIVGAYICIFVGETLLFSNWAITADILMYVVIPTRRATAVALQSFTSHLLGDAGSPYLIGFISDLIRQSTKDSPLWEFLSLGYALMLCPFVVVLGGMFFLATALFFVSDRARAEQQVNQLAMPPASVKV
Description: as §1

Nectin-2 = biological target: T7, Nectin-2 (human, UniProt Q92692 32-538); assay: cell microarray on HEK293 cells, pooled compounds
T7 construct: whole, on cells; Plasma membrane, non-tethered secreted and tethered secreted forms in the library
T7 sequence (looked up): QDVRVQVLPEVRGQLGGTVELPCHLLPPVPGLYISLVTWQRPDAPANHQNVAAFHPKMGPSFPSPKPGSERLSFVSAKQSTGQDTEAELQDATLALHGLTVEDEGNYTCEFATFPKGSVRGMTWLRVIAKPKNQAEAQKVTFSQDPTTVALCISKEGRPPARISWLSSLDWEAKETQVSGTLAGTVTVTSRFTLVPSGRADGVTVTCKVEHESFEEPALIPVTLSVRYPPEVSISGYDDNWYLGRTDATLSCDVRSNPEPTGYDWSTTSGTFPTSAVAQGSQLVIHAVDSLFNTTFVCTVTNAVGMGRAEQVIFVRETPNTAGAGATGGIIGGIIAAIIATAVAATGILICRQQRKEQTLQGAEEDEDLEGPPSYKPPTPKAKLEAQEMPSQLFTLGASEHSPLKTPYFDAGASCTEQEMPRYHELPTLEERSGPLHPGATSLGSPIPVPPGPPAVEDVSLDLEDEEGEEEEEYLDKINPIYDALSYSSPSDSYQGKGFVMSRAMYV
Description: as §1

Nectin-1 = biological target: T8, Nectin-1 (human, UniProt Q15223 31-517); assay: cell microarray on HEK293 cells, pooled compounds
T8 construct: whole, on cells; Plasma membrane, non-tethered secreted and tethered secreted forms in the library
T8 sequence (looked up): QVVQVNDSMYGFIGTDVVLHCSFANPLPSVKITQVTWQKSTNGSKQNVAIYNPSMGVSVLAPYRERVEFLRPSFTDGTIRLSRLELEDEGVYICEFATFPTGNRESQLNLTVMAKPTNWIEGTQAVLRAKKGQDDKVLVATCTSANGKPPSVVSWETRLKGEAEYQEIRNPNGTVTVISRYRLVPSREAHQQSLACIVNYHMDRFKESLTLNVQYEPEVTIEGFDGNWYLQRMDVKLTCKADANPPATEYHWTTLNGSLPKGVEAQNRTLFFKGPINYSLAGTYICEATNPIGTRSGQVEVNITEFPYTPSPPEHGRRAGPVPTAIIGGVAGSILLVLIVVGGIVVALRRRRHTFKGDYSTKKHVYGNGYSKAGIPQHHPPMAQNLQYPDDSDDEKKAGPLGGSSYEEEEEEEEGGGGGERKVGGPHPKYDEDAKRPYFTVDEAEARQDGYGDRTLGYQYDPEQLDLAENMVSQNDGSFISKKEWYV
Description: as §1

Measured: binding result

T3 sequence (P48061 22-93): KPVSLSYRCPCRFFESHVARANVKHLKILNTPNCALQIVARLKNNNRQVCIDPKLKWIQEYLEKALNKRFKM
T5 sequence (Q9NQA5 whole entry): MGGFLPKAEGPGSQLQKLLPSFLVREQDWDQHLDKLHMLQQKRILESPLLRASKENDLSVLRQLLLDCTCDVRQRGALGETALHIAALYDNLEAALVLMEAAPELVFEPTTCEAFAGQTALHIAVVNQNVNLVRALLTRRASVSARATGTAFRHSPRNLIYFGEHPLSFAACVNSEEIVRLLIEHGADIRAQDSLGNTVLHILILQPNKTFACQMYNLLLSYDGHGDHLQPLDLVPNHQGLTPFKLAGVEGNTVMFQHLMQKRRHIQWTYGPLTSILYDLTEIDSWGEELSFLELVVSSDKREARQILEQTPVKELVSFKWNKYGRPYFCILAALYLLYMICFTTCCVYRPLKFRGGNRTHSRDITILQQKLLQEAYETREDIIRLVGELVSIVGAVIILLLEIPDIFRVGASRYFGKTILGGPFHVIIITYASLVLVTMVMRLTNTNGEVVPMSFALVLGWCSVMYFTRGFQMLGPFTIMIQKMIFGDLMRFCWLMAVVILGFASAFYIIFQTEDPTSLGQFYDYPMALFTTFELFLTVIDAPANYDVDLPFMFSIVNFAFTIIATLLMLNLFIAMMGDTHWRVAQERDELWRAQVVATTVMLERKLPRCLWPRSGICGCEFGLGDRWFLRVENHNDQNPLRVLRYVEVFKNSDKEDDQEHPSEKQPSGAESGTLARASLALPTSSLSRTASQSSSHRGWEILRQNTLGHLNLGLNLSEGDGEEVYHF

{Biotin-PEG4′}-CEYDEEFFTALARLRGGDICQYIQA[Lys(Me3)]FQYLPALCIEEILDNLGCS (designed binder, cysteine pairing not given here) [C253]
no binding (tested: 2 µg/mL): all assays above

{Biotin-PEG4′}-CDYDEQFFTALKRLRGADICEYIQASFQYLPGECIEEILDNLGCS (designed binder, cysteine pairing not given here) [C208]
no binding (tested: 2 µg/mL): all assays above

{Biotin-PEG4′}-CDYDEQFFTALARLRGADICEYIQASFQYLPGECIEEILDNLGCS (designed binder, cysteine pairing not given here) [C247]
no binding (tested: 2 µg/mL): all assays above

{Biotin-PEG4′}-CEYDEQFFTALKRLRGDDICDYIQASFQYLPGLCIEEILDNLGCS (designed binder, cysteine pairing not given here) [C197]
no binding (tested: 2 µg/mL): all assays above

{Biotin-PEG4′}-CDYDEQFFTALKRLRGGDICEYIQASFQYLPGLCIEEILDNLGCS (designed binder, cysteine pairing not given here) [C190]
no binding (tested: 2 µg/mL): all assays above
